We go through 125 sequences from the supplement of paper PMC9112550, “Optimization of the antimicrobial peptide Bac7 by deep mutational scanning” (BMC Biology, 2022).
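Note: peptides expressed intracellularly from a pBAD plasmid library in pooled LB shake-flask culture, induced with 0.3% L-arabinose, DNA abundance read by NGS, three biological replicates, DESeq2 with apeglm shrinkage.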

This data set deals with Escherichia coli TOP10. Kind of data set: shrunken log2 fold change of peptide-encoding DNA abundance (4.5 h post-induction vs induction); higher = less antimicrobial activity (less host growth inhibition). The settings on record: time post-induction: 4.5 h; library: site-saturation at positions 5, 18, 19, 20.
For the sequence RRIRSRPPRLPRPRPRPHHIPRP, the “shrunken log2 fold change” value was -1.12.

With RRIRWRPPRLPRPRPRPYCIPRP, the “shrunken log2 fold change” value was -0.179.

On to RRIRRRPPRLPRPRPRPCEYPRP, for which the “shrunken log2 fold change” value turned out to be 0.0177.

In the case of RRIRVRPPRLPRPRPRPGQKPRP, the “shrunken log2 fold change” value was 0.00253.

RRIRHRPPRLPRPRPRPVTWPRP: the “shrunken log2 fold change” value is -0.268.

RRIRDRPPRLPRPRPRPYHAPRP: the “shrunken log2 fold change” value was -0.0316.

For the sequence RRIRSRPPRLPRPRPRPEFKPRP, the “shrunken log2 fold change” value is 0.00218.

As to RRIRARPPRLPRPRPRPWENPRP, the “shrunken log2 fold change” value came out at 0.0143.

With RRIRSRPPRLPRPRPRPGHAPRP, the “shrunken log2 fold change” value was determined as 0.205.

Turning to RRIRVRPPRLPRPRPRPMRPPRP, the “shrunken log2 fold change” value came to 0.544.

For the sequence RRIRPRPPRLPRPRPRPWEIPRP, the “shrunken log2 fold change” value was -0.00151.

Consider RRIRERPPRLPRPRPRPSEFPRP, for which the “shrunken log2 fold change” value is -0.23.

RRIRRRPPRLPRPRPRPQYYPRP: the “shrunken log2 fold change” value was -0.968.

As for RRIRRRPPRLPRPRPRPALEPRP, the “shrunken log2 fold change” value worked out at 0.264.

As for RRIRSRPPRLPRPRPRPRRTPRP, the “shrunken log2 fold change” value turned out to be 0.183.

Consider RRIRLRPPRLPRPRPRPVHAPRP, for which the “shrunken log2 fold change” value is 0.178.

Regarding RRIRHRPPRLPRPRPRPKIYPRP, the “shrunken log2 fold change” value is -0.296.

For the sequence RRIRVRPPRLPRPRPRPWCDPRP, the “shrunken log2 fold change” value was -0.394.

Take RRIRARPPRLPRPRPRPVVLPRP: the “shrunken log2 fold change” value amounted to 0.463.

As for RRIRRRPPRLPRPRPRPNGPPRP, the “shrunken log2 fold change” value came to 0.384.

As for RRIRPRPPRLPRPRPRPLQAPRP, the “shrunken log2 fold change” value was 0.496.

Take RRIRYRPPRLPRPRPRPTQAPRP: the “shrunken log2 fold change” value was -0.00154.

In the case of RRIRERPPRLPRPRPRPCLGPRP, the “shrunken log2 fold change” value is -0.0295.

For RRIRLRPPRLPRPRPRPKSNPRP, the “shrunken log2 fold change” value was -0.172.

Take RRIRRRPPRLPRPRPRPQPHPRP: the “shrunken log2 fold change” value amounted to 0.396.

With RRIRTRPPRLPRPRPRPKESPRP, the “shrunken log2 fold change” value came out at 0.0841.

With RRIRFRPPRLPRPRPRPHAEPRP, the “shrunken log2 fold change” value was -0.00295.

In the case of RRIRFRPPRLPRPRPRPTGSPRP, the “shrunken log2 fold change” value is -0.103.

As for RRIRNRPPRLPRPRPRPMIQPRP, the “shrunken log2 fold change” value was -0.715.

With RRIRMRPPRLPRPRPRPVEHPRP, the “shrunken log2 fold change” value is -0.00663.

For the sequence RRIRIRPPRLPRPRPRPVKFPRP, the “shrunken log2 fold change” value is -0.0946.

With RRIRYRPPRLPRPRPRPMILPRP, the “shrunken log2 fold change” value was -0.287.

Regarding RRIRVRPPRLPRPRPRPIMVPRP, the “shrunken log2 fold change” value was -0.219.

RRIRRRPPRLPRPRPRPYYSPRP: the “shrunken log2 fold change” value was -0.532.

Turning to RRIRNRPPRLPRPRPRPEITPRP, the “shrunken log2 fold change” value was -0.0284.

As to RRIRYRPPRLPRPRPRPKEGPRP, the “shrunken log2 fold change” value was -0.186.

Consider RRIRPRPPRLPRPRPRPHWFPRP, for which the “shrunken log2 fold change” value worked out at 0.0501.

On to RRIRPRPPRLPRPRPRPEGAPRP, for which the “shrunken log2 fold change” value amounted to 0.713.

For the sequence RRIRSRPPRLPRPRPRPNNDPRP, the “shrunken log2 fold change” value is -0.503.

In the case of RRIRHRPPRLPRPRPRPYSNPRP, the “shrunken log2 fold change” value is -0.392.

As for RRIRVRPPRLPRPRPRPILLPRP, the “shrunken log2 fold change” value was -0.815.

Take RRIRKRPPRLPRPRPRPEIEPRP: the “shrunken log2 fold change” value came out at 2.58.

Take RRIRCRPPRLPRPRPRPLFNPRP: the “shrunken log2 fold change” value was -0.665.

In the case of RRIRRRPPRLPRPRPRPIKFPRP, the “shrunken log2 fold change” value is -0.202.

As for RRIRLRPPRLPRPRPRPSAFPRP, the “shrunken log2 fold change” value was -0.181.

As to RRIRTRPPRLPRPRPRPVQDPRP, the “shrunken log2 fold change” value is -0.00469.

For RRIRLRPPRLPRPRPRPMDYPRP, the “shrunken log2 fold change” value was -0.202.

Regarding RRIRQRPPRLPRPRPRPYYTPRP, the “shrunken log2 fold change” value was -0.363.

For the sequence RRIRARPPRLPRPRPRPPICPRP, the “shrunken log2 fold change” value is -0.0154.

With RRIRNRPPRLPRPRPRPSCKPRP, the “shrunken log2 fold change” value stood at 0.065.

As for RRIRMRPPRLPRPRPRPQNTPRP, the “shrunken log2 fold change” value came out at 0.0152.

On to RRIRSRPPRLPRPRPRPQCQPRP, for which the “shrunken log2 fold change” value is -0.146.

Regarding RRIRMRPPRLPRPRPRPNFKPRP, the “shrunken log2 fold change” value is -0.0166.

As for RRIRQRPPRLPRPRPRPQYLPRP, the “shrunken log2 fold change” value is -0.131.

For RRIRCRPPRLPRPRPRPDAWPRP, the “shrunken log2 fold change” value came to 0.141.

Consider RRIRSRPPRLPRPRPRPVKQPRP, for which the “shrunken log2 fold change” value was determined as 0.0733.

For the sequence RRIRKRPPRLPRPRPRPHTLPRP, the “shrunken log2 fold change” value is -0.168.

With RRIRKRPPRLPRPRPRPFKSPRP, the “shrunken log2 fold change” value is -0.294.

Regarding RRIRDRPPRLPRPRPRPQTAPRP, the “shrunken log2 fold change” value amounted to 4.26.

Regarding RRIRDRPPRLPRPRPRPDSMPRP, the “shrunken log2 fold change” value is 0.00619.

As to RRIRGRPPRLPRPRPRPGILPRP, the “shrunken log2 fold change” value is 0.335.

Regarding RRIRWRPPRLPRPRPRPQAQPRP, the “shrunken log2 fold change” value was 0.00496.

As to RRIRKRPPRLPRPRPRPEMCPRP, the “shrunken log2 fold change” value came to 1.1.

RRIRQRPPRLPRPRPRPWDFPRP: the “shrunken log2 fold change” value turned out to be 0.2.

With RRIRIRPPRLPRPRPRPNNPPRP, the “shrunken log2 fold change” value was -0.471.

In the case of RRIRHRPPRLPRPRPRPSSDPRP, the “shrunken log2 fold change” value is -0.529.

In the case of RRIRCRPPRLPRPRPRPHGVPRP, the “shrunken log2 fold change” value was 0.015.

RRIRTRPPRLPRPRPRPHCVPRP: the “shrunken log2 fold change” value is -0.192.

With RRIRIRPPRLPRPRPRPQMRPRP, the “shrunken log2 fold change” value stood at 0.0729.

For the sequence RRIRDRPPRLPRPRPRPVFFPRP, the “shrunken log2 fold change” value was 0.208.

On to RRIRERPPRLPRPRPRPCNKPRP, for which the “shrunken log2 fold change” value is -0.858.

As to RRIRPRPPRLPRPRPRPYWSPRP, the “shrunken log2 fold change” value is -0.324.

On to RRIRRRPPRLPRPRPRPEAVPRP, for which the “shrunken log2 fold change” value was 1.53.

Turning to RRIRERPPRLPRPRPRPGIYPRP, the “shrunken log2 fold change” value is -0.91.

Turning to RRIRWRPPRLPRPRPRPMLLPRP, the “shrunken log2 fold change” value turned out to be 0.259.

With RRIRFRPPRLPRPRPRPHPAPRP, the “shrunken log2 fold change” value was found to be 0.0971.

On to RRIRTRPPRLPRPRPRPINEPRP, for which the “shrunken log2 fold change” value is -0.405.

RRIRCRPPRLPRPRPRPIMCPRP: the “shrunken log2 fold change” value was found to be 0.0272.

On to RRIRTRPPRLPRPRPRPSTAPRP, for which the “shrunken log2 fold change” value is 0.181.

In the case of RRIRDRPPRLPRPRPRPYSQPRP, the “shrunken log2 fold change” value was -0.0305.

With RRIRHRPPRLPRPRPRPTLMPRP, the “shrunken log2 fold change” value is -0.0715.

As to RRIRSRPPRLPRPRPRPIEAPRP, the “shrunken log2 fold change” value was found to be 0.137.

Consider RRIRHRPPRLPRPRPRPLGHPRP, for which the “shrunken log2 fold change” value was -0.499.

On to RRIRNRPPRLPRPRPRPFRFPRP, for which the “shrunken log2 fold change” value was -0.199.

RRIRKRPPRLPRPRPRPSQVPRP: the “shrunken log2 fold change” value stood at 0.31.

RRIRTRPPRLPRPRPRPVNVPRP: the “shrunken log2 fold change” value is -0.172.

Turning to RRIRHRPPRLPRPRPRPSFAPRP, the “shrunken log2 fold change” value stood at 0.0263.

For RRIRFRPPRLPRPRPRPQRSPRP, the “shrunken log2 fold change” value is -0.105.

Turning to RRIRARPPRLPRPRPRPRNIPRP, the “shrunken log2 fold change” value turned out to be 0.157.

For the sequence RRIRIRPPRLPRPRPRPQTGPRP, the “shrunken log2 fold change” value is -0.139.

In the case of RRIRLRPPRLPRPRPRPEEWPRP, the “shrunken log2 fold change” value worked out at 0.119.

As for RRIRVRPPRLPRPRPRPRINPRP, the “shrunken log2 fold change” value is -0.07.

RRIRQRPPRLPRPRPRPLYMPRP: the “shrunken log2 fold change” value was -0.198.

For RRIRYRPPRLPRPRPRPQWAPRP, the “shrunken log2 fold change” value was -0.00681.

Turning to RRIRSRPPRLPRPRPRPNIGPRP, the “shrunken log2 fold change” value is -0.283.

With RRIRFRPPRLPRPRPRPWHVPRP, the “shrunken log2 fold change” value was -0.0433.

In the case of RRIRLRPPRLPRPRPRPTSAPRP, the “shrunken log2 fold change” value was 0.659.

Take RRIRCRPPRLPRPRPRPWVIPRP: the “shrunken log2 fold change” value is -0.11.

As to RRIRERPPRLPRPRPRPEQWPRP, the “shrunken log2 fold change” value stood at 0.127.

RRIRTRPPRLPRPRPRPPISPRP: the “shrunken log2 fold change” value was 0.075.

In the case of RRIRLRPPRLPRPRPRPMDKPRP, the “shrunken log2 fold change” value is -0.296.

With RRIRRRPPRLPRPRPRPEMCPRP, the “shrunken log2 fold change” value stood at 0.11.

As to RRIRKRPPRLPRPRPRPFEEPRP, the “shrunken log2 fold change” value was determined as 0.148.

In the case of RRIRFRPPRLPRPRPRPRHIPRP, the “shrunken log2 fold change” value is -0.439.

On to RRIRLRPPRLPRPRPRPVEVPRP, for which the “shrunken log2 fold change” value was -0.0272.

In the case of RRIRYRPPRLPRPRPRPFTWPRP, the “shrunken log2 fold change” value was -1.51.

With RRIRFRPPRLPRPRPRPLYDPRP, the “shrunken log2 fold change” value is -0.358.

Consider RRIRHRPPRLPRPRPRPPFQPRP, for which the “shrunken log2 fold change” value was 0.0923.

For RRIRARPPRLPRPRPRPNLHPRP, the “shrunken log2 fold change” value was 0.0181.

On to RRIRDRPPRLPRPRPRPCARPRP, for which the “shrunken log2 fold change” value was 0.219.

On to RRIRMRPPRLPRPRPRPFDHPRP, for which the “shrunken log2 fold change” value was -0.00544.

As for RRIRCRPPRLPRPRPRPQVWPRP, the “shrunken log2 fold change” value was -0.0474.

With RRIRKRPPRLPRPRPRPYMPPRP, the “shrunken log2 fold change” value was -0.315.

Take RRIRLRPPRLPRPRPRPYDYPRP: the “shrunken log2 fold change” value is -0.0244.

For the sequence RRIRRRPPRLPRPRPRPQKKPRP, the “shrunken log2 fold change” value was -0.0695.

As for RRIRIRPPRLPRPRPRPIKHPRP, the “shrunken log2 fold change” value was -0.571.

Turning to RRIRARPPRLPRPRPRPVNDPRP, the “shrunken log2 fold change” value is 0.584.

Regarding RRIRVRPPRLPRPRPRPFRAPRP, the “shrunken log2 fold change” value is -0.0855.

Regarding RRIRARPPRLPRPRPRPCAVPRP, the “shrunken log2 fold change” value worked out at 0.365.

Take RRIRDRPPRLPRPRPRPYQWPRP: the “shrunken log2 fold change” value came to 0.0508.

Regarding RRIRERPPRLPRPRPRPCCKPRP, the “shrunken log2 fold change” value is -0.267.

Take RRIRFRPPRLPRPRPRPGAFPRP: the “shrunken log2 fold change” value was -0.162.

As to RRIRWRPPRLPRPRPRPCSEPRP, the “shrunken log2 fold change” value was -0.206.

RRIRVRPPRLPRPRPRPSYQPRP: the “shrunken log2 fold change” value is -0.34.

RRIRWRPPRLPRPRPRPELCPRP: the “shrunken log2 fold change” value was 0.579.
